# Patent US20210284709A1 (JUNO THERAPEUTICS, published 2021)
# Target: T1, HLA-A2/E6(29-38) tetramer (human; HPV 16)
# T1 construct: also called E6(29-38) peptide-MHC tetramer; E6 tet
# Assay: flow cytometry, tetramer + anti-CD8; transfected mix of CD8- and CD8+ Jurkat-derived cells;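 for % cells E6 tet+/CD8+ quadrant: CD4+ and CD4+/CD8+ cell mixtures transiently given TCR plasmids, analysed 48 h post-transfection by flow cytometry with E6(29-38)–HLA-A*02:01 tetramer plus anti-CD8 antibody co-stain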;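 for % cells E6 tet+/CD8- quadrant: CD4+ and CD4+/CD8+ cell mixtures transiently given TCR plasmids, analysed 48 h post-transfection by flow cytometry with E6(29-38)–HLA-A*02:01 tetramer plus anti-CD8 antibody co-stain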;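 for % cells E7 tet+/CD8+ quadrant: cells transiently transfected with TCR-encoding plasmids, analysed 48 h afterwards by co-staining with HLA-A*02:01 peptide tetramer and anti-CD8 antibody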;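 for % cells E7 tet+/CD8- quadrant: cells transiently transfected with TCR-encoding plasmids, analysed 48 h afterwards by co-staining with HLA-A*02:01 peptide tetramer and anti-CD8 antibody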
# Description: (§1) For transfection, the CD4+ and CD4+/CD8+ cell mixtures were transiently transfected with TCR-encoding plasmids and 48 hours after transfection, cells were assessed by flow cytometry for (1) binding of the target peptide in the context of an MHC molecule (HLA:A02:01) by staining with an E6(29-38) peptide- or an E7(11-19) peptide-MHC tetramer reagent, and/or (2) CD8+ independent binding of the target by co-staining the tetramer-labeled cells with an anti-CD8 antibody.
Binder,% cells E6 tet+/CD8+ quadrant [%],% cells E6 tet+/CD8- quadrant [%]
"TCR 29 (codon-optimized, cysteine-modified) (TCR, V domains shown) V domain 1: AQKITQTQPGMFVQEKEAVTLDCTYDTSDQSYGLFWYKQPSSGEMIFLIYQGSYDEQNATEGRYSLNFQKARKSANLVISASQLGDSAMYFCAMRLNTGTASKLTFGTGTRLQVTL V domain 2: DGGITQSPKYLFRKEGQNVTLSCEQNLNHDAMYWYRQDPGQGLRLIYYSQIVNDFQKGDIAEGYSVSREKKESFPLTVTSAQKNPTAFYLCASSPWGRATNEQFFGPGTRLTVLE",35.6,44.5
"TCR 28 (codon-optimized, cysteine-modified) (TCR, V domains shown) V domain 1: RKEVEQDPGPFNVPEGATVAFNCTYSNSASQSFFWYRQDCRKEPKLLMSVYSSGNEDGRFTAQLNRASQYISLLIRDSKLSDSATYLCVVRGGGTSYGKLTFGQGTILTVHP V domain 2: DVKVTQSSRYLVKRTGEKVFLECVQDMDHENMFWYRQDPGLGLRLIYFSYDVKMKEKGDIPEGYSVSREKKERFSLILESASTNQTSMYLCASSLWGRSSGNTIYFGEGSWLTVVE",13.1,0.15
"TCR 30 (codon-optimized, cysteine-modified) (TCR, V domains shown) V domain 1: DAKTTQPPSMDCAEGRAANLPCNHSTISGNEYVYWYRQIHSQGPQYIIHGLKNNETNEMASLIITEDRKSSTLILPHATLRDTAVYYCIVRGTSVLQGNEKLTFGTGTRLTIIP V domain 2: EPEVTQTPSHQVTQMGQEVILRCVPISNHLYFYWYRQILGQKVEFLVSFYNNEISEKSEIFDDQFSVERPDGSNFTLKIRSTKLEDSAMYFCASSRQPSSGNTIYFGEGSWLTVVE",31,0.74
"TCR 16 (codon-optimized, cysteine-modified) (TCR, V domains shown) V domain 1: KQEVTQIPAALSVPEGENLVLNCSFTDSAIYNLQWFRQDPGKGLTSLLLIQSSQREQTSGRLNASLDKSSGRSTLYIAASQPGDSATYLCAVRPANNNDMRFGAGTRLTVKP V domain 2: DVKVTQSSRYLVKRTGEKVFLECVQDMDHENMFWYRQDPGLGLRLIYFSYDVKMKEKGDIPEGYSVSREKKERFSLILESASTNQTSMYLCASSLWGRSNQPQHFGDGTRLSILE",35.6,28.2
"TCR 25 (codon-optimized, cysteine-modified) (TCR, V domains shown) V domain 1: AQKITQTQPGMFVQEKEAVTLDCTYDTSDQSYGLFWYKQPSSGEMIFLIYQGSYDEQNATEGRYSLNFQKARKSANLVISASQLGDSAMYFCAMREGSLTGGGNKLTFGTGTQLKVEL V domain 2: DVKVTQSSRYLVKRTGEKVFLECVQDMDHENMFWYRQDPGLGLRLIYFSYDVKMKEKGDIPEGYSVSREKKERFSLILESASTNQTSMYLCASSLWGQSNQPQHFGDGTRLSILE",34,14.7
"TCR 19 (codon-optimized, cysteine-modified) (TCR, V domains shown) V domain 1: AQKITQTQPGMFVQEKEAVTLDCTYDTSDQSYGLFWYKQPSSGEMIFLIYQGSYDEQNATEGRYSLNFQKARKSANLVISASQLGDSAMYFCAMRENTGTASKLTFGTGTRLQVTL V domain 2: DVKVTQSSRYLVKRTGEKVFLECVQDMDHENMFWYRQDPGLGLRLIYFSYDVKMKEKGDIPEGYSVSREKKERFSLILESASTNQTSMYLCASSSWGQSTGEQYFGPGTRLTVTE",35.5,20.8
"TCR 15 (codon-optimized, cysteine-modified) (TCR, V domains shown) V domain 1: AQKITQTQPGMFVQEKEAVTLDCTYDTSDQSYGLFWYKQPSSGEMIFLIYQGSYDEQNATEGRYSLNFQKARKSANLVISASQLGDSAMYFCAMKPGGYNKLIFGAGTRLAVHP V domain 2: DAGVIQSPRHEVTEMGQEVTLRCKPISGHNSLFWYRQTMMRGLELLIYFNNNVPIDDSGMPEDRFSAKMPNASFSTLKIQPSEPRDSAVYFCASSLVGRSRTEQYFGPGTRLTVTE",21.4,40.2
"TCR 26 (codon-optimized, cysteine-modified) (TCR, V domains shown) V domain 1: AQKITQTQPGMFVQEKEAVTLDCTYDTSDQSYGLFWYKQPSSGEMIFLIYQGSYDEQNATEGRYSLNFQKARKSANLVISASQLGDSAMYFCAMRDARNNDMRFGAGTRLTVKP V domain 2: NAGVTQTPKFRVLKTGQSMTLLCAQDMNHEYMYWYRQDPGMGLRLIHYSVGEGTTAKGEVPDGYNVSRLKKQNFLLGLESAAPSQTSVYFCASSYYASGRNYEQYFGPGTRLTVTE",42.3,47.4
"TCR 20 (codon-optimized, cysteine-modified) (TCR, V domains shown) V domain 1: AQKVTQAQTEISVVEKEDVTLDCVYETRDTTYYLFWYKQPPSGELVFLIRRNSFDEQNEISGRYSWNFQKSTSSFNFTITASQVVDSAVYFCALWTGANNLFFGTGTRLTVIP V domain 2: GAVVSQHPSRVICKSGTSVKIECRSLDFQATTMFWYRQFPKQSLMLMATSNEGSKATYEQGVEKDKFLINHASLTLSTLTVTSAHPEDSSFYICSASSLARRSYEQYFGPGTRLTVTE",38.2,34.1

# Target: T2, HLA-A2/E7(11-19) tetramer (human; HPV 16)
# T2 construct: also called E7(11-19) peptide-MHC tetramer; E7 tet
# Assay: as above
# Description: as §1
Binder,% cells E7 tet+/CD8+ quadrant [%],% cells E7 tet+/CD8- quadrant [%]
"TCR 32 (codon-optimized, cysteine-modified) (TCR, V domains shown) V domain 1: TQLLEQSPQFLSIQEGENLTVYCNSSSVFSSLQWYRQEPGEGPVLLVTVVTGGEVKKLKRLTFQFGDARKDSSLHITAAQPGDTGLYLCAGGSNYKLTFGKGTLLTVNP V domain 2: DSGVTQTPKHLITATGQRVTLRCSPRSGDLSVYWYQQSLDQGLQFLIQYYNGEERAKGNILERFSAQQFPDLHSELNLSSLELGDSALYFCASSVGGDHSDEQFFGPGTRLTVLE",25.3,33.5
"TCR 31 (codon-optimized, cysteine-modified) (TCR, V domains shown) V domain 1: DQQVKQNSPSLSVQEGRISILNCDYTNSMFDYFLWYKKYPAEGPTFLISISSIKDKNEDGRFTVFLNKSAKHLSLHIVPSQPGDSAVYFCAASERGTYKYIFGTGTRLKVLA V domain 2: GAGVSQSPSNKVTEKGKDVELRCDPISGHTALYWYRQSLGQGLEFLIYFQGNSAPDKSGLPSDRFSAERTGGSVSTLTIQRTQQEDSAVYLCASSRFLGSTDTQYFGPGTRLTVLE",4.52,0.042
"TCR 55 (codon-optimized, cysteine-modified) (TCR) TCR alpha: GEDVEQSLFLSVREGDSSVINCTYTDSSSTYLYWYKQEPGAGLQLLTYIFSNMDMKQDQRLTVLLNKKDKHLSLRIADTQTGDSAIYFCAVPSGATNKLIFGTGTLLAVQPNIQNPDPAVYQLRDSKSSDKSVCLFTDFDSQTNVSQSKDSDVYITDKCVLDMRSMDFKSNSAVAWSNKSDFACANAFNNSIIPEDTFFPSPESSCDVKLVEKSFETDTNLNFQNLSVIGFRILLLKVAGFNLLMTLRLWSS TCR beta: EPEVTQTPSHQVTQMGQEVILRCVPISNHLYFYWYRQILGQKVEFLVSFYNNEISEKSEIFDDQFSVERPDGSNFTLKIRSTKLEDSAMYFCASTTRSSYEQYFGPGTRLTVTEDLKNVFPPEVAVFEPSEAEISHTQKATLVCLATGFYPDHVELSWWVNGKEVHSGVCTDPQPLKEQPALNDSRYCLSSRLRVSATFWQNPRNHFRCQVQFYGLSENDEWTQDRAKPVTQIVSAEAWGRADCGFTSESYQQGVLSATILYEILLGKATLYAVLVSALVLMAMVKRKDSRG",1.45,0.28

# Target: T1, HLA-A2/E6(29-38) tetramer
# Assay: flow cytometry, tetramer + anti-CD8; transfected Jurkat-derived cells, CD8+ cells
# Description: as §1
Binder,% cells E6 tet+/CD8+ quadrant [%],% cells E6 tet+/CD8- quadrant [%]
"TCR 22 (codon-optimized, cysteine-modified) (TCR, V domains shown) V domain 1: GQNIDQPTEMTATEGAIVQINCTYQTSGFNGLFWYQQHAGEAPTFLSYNVLDGLEEKGRFSSFLSRSKGYSYLLLKELQMKDSASYLCAVRARMDSNYQLIWGAGTKLIIKP V domain 2: DAGVTQSPTHLIKTRGQHVTLRCSPISGHKSVSWYQQVLGQGPQFIFQYYEKEERGRGNFPDRFSARQFPNYSSELNVNALLLGDSALYLCASSRTENYGYTFGSGTRLTVVE",51.2,0.14
modified version of TCR 13 (TCR) TCR alpha: AQSVTQLDSHVSVSEGTPVLLRCNYSSSYSPSLFWYVQHPNKGLQLLLKYTSAATLVKGINGFEAEFKKSETSFHLTKPSAHMSDAAEYFCVVRGGKLIFGQGTELSVKPNIQNPDPAVYQLRDSKSSDKSVCLFTDFDSQTNVSQSKDSDVYITDKCVLDMRSMDFKSNSAVAWSNKSDFACANAFNNSIIPEDTFFPSPESSCDVKLVEKSFETDTNLNFQNLSVIGFRILLLKVAGFNLLMTLRLWSS TCR beta: GAGVSQSPRYKVAKRGQDVALRCDPISGHVSLFWYQQALGQGPEFLTYFQNEAQLDKSGLPSDRFFAERPEGSVSTLKIQRTQQEDSAVYLCASSPTGTERELFFGEGSRLTVLEDLKNVFPPEVAVFEPSEAEISHTQKATLVCLATGFYPDHVELSWWVNGKEVHSGVCTDPQPLKEQPALNDSRYCLSSRLRVSATFWQNPRNHFRCQVQFYGLSENDEWTQDRAKPVTQIVSAEAWGRADCGFTSESYQQGVLSATILYEILLGKATLYAVLVSALVLMAMVKRKDSRG,38.6,0.064
modified version of TCR 14 (TCR) TCR alpha: ILNVEQSPQSLHVQEGDSTNFTCSFPSSNFYALHWYRWETAKSPEALFVMTLNGDEKKKGRISATLNTKEGYSYLYIKGSQPEDSATYLCASQTGANNLFFGTGTRLTVIPYIQNPDPAVYQLRDSKSSDKSVCLFTDFDSQTNVSQSKDSDVYITDKCVLDMRSMDFKSNSAVAWSNKSDFACANAFNNSIIPEDTFFPSPESSCDVKLVEKSFETDTNLNFQNLSVIGFRILLLKVAGFNLLMTLRLWSS TCR beta: DVKVTQSSRYLVKRTGEKVFLECVQDMDHENMFWYRQDPGLGLRLIYFSYDVKMKEKGDIPEGYSVSREKKERFSLILESASTNQTSMYLCASTFWGQRRTEAFFGQGTRLTVVEDLNKVFPPEVAVFEPSEAEISHTQKATLVCLATGFFPDHVELSWWVNGKEVHSGVCTDPQPLKEQPALNDSRYCLSSRLRVSATFWQNPRNHFRCQVQFYGLSENDEWTQDRAKPVTQIVSAEAWGRADCGFTSVSYQQGVLSATILYEILLGKATLYAVLVSALVLMAMVKRKDF,38.4,0.04
